The target of data set [1] is T1, Cas1 (Escherichia coli, UniProt Q46896 1-305).
T1 sequence: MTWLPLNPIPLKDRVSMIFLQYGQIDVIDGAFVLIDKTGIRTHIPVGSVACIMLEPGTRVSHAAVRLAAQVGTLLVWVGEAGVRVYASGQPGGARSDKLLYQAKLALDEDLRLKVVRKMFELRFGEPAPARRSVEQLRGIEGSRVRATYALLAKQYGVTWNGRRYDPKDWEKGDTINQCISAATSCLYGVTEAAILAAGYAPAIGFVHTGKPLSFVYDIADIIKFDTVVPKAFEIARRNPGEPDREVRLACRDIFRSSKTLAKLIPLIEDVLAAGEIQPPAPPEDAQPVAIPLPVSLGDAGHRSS
The data set can be described thus: EMSA; 5 mM EDTA; Cas1 0.1-25 nM, DNA 6 nM; EMSA: 7 mM Tris-HCl pH 8.5, 9% glycerol, 50 mM NaCl, 100 ug/ml BSA, 5 mM EDTA, 10 min ambient temperature, 6 nM DNA, 5% acrylamide TBE gel at room temperature. The settings on record: protein: recombinant; tags: N-terminal His6; chain copies: 2; label: 5'-32P; fork; 25 nt leading arm duplex, 26 nt ssDNA flap. Background: A gel shift assay detects complexes by their altered migration in electrophoresis.

A further data set deals with T2, Cas2 (Escherichia coli, UniProt P45956 1-94).
T2 sequence: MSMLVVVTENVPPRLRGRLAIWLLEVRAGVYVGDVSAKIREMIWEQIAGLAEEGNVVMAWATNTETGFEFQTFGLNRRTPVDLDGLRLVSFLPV
The data set can be described thus: EMSA; 5 mM EDTA; EMSA: 7 mM Tris-HCl pH 8.5, 9% glycerol, 50 mM NaCl, 100 ug/ml BSA, 5 mM EDTA, 10 min ambient temperature, 6 nM DNA, 5% acrylamide TBE gel at room temperature. The settings on record: protein: recombinant; tags: N-terminal His6; chain copies: 2; label: 5'-32P; fork; 25 nt leading arm duplex, 26 nt ssDNA flap.

Data set [2] deals with T1, Cas1. The data set can be described thus: EMSA; 5 mM EDTA; Cas1 25 nM, DNA 6 nM; similar to fork-1; EMSA: 7 mM Tris-HCl pH 8.5, 9% glycerol, 50 mM NaCl, 100 ug/ml BSA, 5 mM EDTA, 10 min ambient temperature, 6 nM DNA, 5% acrylamide TBE gel at room temperature. The settings on record: protein: recombinant; tags: N-terminal His6; chain copies: 2; label: 5'-32P; fork with 4 nt ssDNA gap at branch point.

B1: fork-1 (mixed)
DNA 1: CAACGTCATAGACGATTACATTGCTACATGGAGCTGTCTAGAGGATCCGA
DNA 2: TCGGATCCTCTAGACAGCTCCATGATCACTGGCACTGGTAGAATTCGGC
DNA 3: GCCGAATTCTACCAGTGCCAGTGAT
Regarding B1, the binding result with Cas1 [1] is reported as “binds”; with Cas2, “no binding”.

B2: fork-1a (mixed)
DNA 1: B1 DNA 1
DNA 2: B1 DNA 2
DNA 3: GCCGAATTCTACCAGTGCCAGTGAT
DNA 4: AATGTAATCGTCTATGACGTTG
With B2, the binding result with Cas1 [2] is on record as “binds”.

The values are drawn from paper PMC4678826, “Different genome stability proteins underpin primed and naïve adaptation in E. coli CRISPR-Cas immunity”.
